Here are results for 71 molecules from patent US20250011363A1, “OPTIMIZED SHORTENED PEPTIDE THAT BINDS TO ACETYLCHOLINE RECEPTOR, AND USE THEREOF” (SKINMED CO., LTD., priority 2021, published 2025).

The assay deals with acetylcholine receptor. Nature of the assay: SPR, AchR immobilised, peptide 10 uM.

KRPDNR [6mer-1-626] showed a Binding affinity (RU) of 27 RU. The molecule RKTKAK [6mer-1-1071] displayed a Binding affinity (RU) of 38 RU. The figure for KKPPAK [6mer-1-624] is 30 RU. KKPSKR [6mer-1-659]: the Binding affinity (RU) was 29 RU.

Regarding KKFWEK [6mer-1-648], the Binding affinity (RU) came out at 17 RU.

In turn, KKNCHK [6mer-1-611] registered a Binding affinity (RU) of 23 RU. For KRDKAK [6mer-1-1065], the Binding affinity (RU) was found to be 23 RU.

For the molecule RRPEVK [6mer-1-652], the Binding affinity (RU) came to 26 RU.

With RKYNVR [6mer-1-647], the Binding affinity (RU) worked out at 14 RU.

KKCPNR [6mer-1-622] returned a Binding affinity (RU) of 18 RU. The figure for RRKHWK [6mer-1-1067] is 38 RU; for RRCTGK [6mer-1-646] it is 33 RU.

Consider KRIMER [6mer-1-612], for which the Binding affinity (RU) was found to be 17 RU. KKDHFR [6mer-1-607]: the Binding affinity (RU) amounted to 22 RU. KKHHER [6mer-1-610] came in with a Binding affinity (RU) of 27 RU. The figure for KKTTWK [6mer-1-635] is 33 RU. Under RKIDAK [6mer-1-633] stands 16 RU; under RRFEFK [6mer-1-637], 33 RU; under KRPNVR [6mer-1-639], 24 RU. Consider KKTSER [6mer-1-615], for which the Binding affinity (RU) came to 18 RU.

As for RRCTVR [6mer-1-657], the Binding affinity (RU) is 17 RU. In turn, RRKTAK [6mer-1-620] registered a Binding affinity (RU) of 11 RU. In turn, RRIAGK [6mer-1-649] yielded a Binding affinity (RU) of 32 RU.

As to RKPKWR [6mer-1-661], the Binding affinity (RU) was 14 RU.

RKDTAR [6mer-1-632] registered a Binding affinity (RU) of 17 RU. Turning to KKESHR [6mer-1-638], the Binding affinity (RU) is 20 RU.

RREMFK [6mer-1-641] showed a Binding affinity (RU) of 21 RU. Turning to KRIMKK [6mer-1-613], the Binding affinity (RU) came to 14 RU. Under RKMDAK [6mer-1-629] stands 11 RU; under RRNCWR [6mer-1-640], 25 RU.

KRHNVR [6mer-1-617]: the Binding affinity (RU) came to 31 RU. The figure for RKKEPK [6mer-1-1076] is 43 RU; for RRCNNR [6mer-1-650] it is 18 RU; for RKCHVK [6mer-1-618] it is 19 RU. Under KRTCGR [6mer-1-1074] stands 24 RU; under RKEDVK [6mer-1-1066], 23 RU. The figure for KKEEER [6mer-1-614] is 12 RU. RRMAGK [6mer-1-621] registered a Binding affinity (RU) of 30 RU. Molecule KKYHVK [6mer-1-660] yielded a Binding affinity (RU) of 31 RU.

In the case of KKNTMR [6mer-1-634], the Binding affinity (RU) is 12 RU. Under RKNPVR [6mer-1-609] stands 24 RU. For RRTDWR [6mer-1-623], the Binding affinity (RU) is 21 RU. The figure for RRTTIR [6mer-1-645] is 33 RU.

In the case of RKYKDR [6mer-1-636], the Binding affinity (RU) was found to be 27 RU. For the molecule KRMNDR [6mer-1-654], the Binding affinity (RU) came to 23 RU. For KKIWAR [6mer-1-1069], the Binding affinity (RU) was found to be 23 RU.

With KRYSMR [6mer-1-643], the Binding affinity (RU) amounted to 31 RU. For KKMTER [6mer-1-662], the Binding affinity (RU) turned out to be 20 RU. As for RKNMFR [6mer-1-655], the Binding affinity (RU) worked out at 12 RU. The figure for KKCDGK [6mer-1-665] is 21 RU; for RKYMWK [6mer-1-1073] it is 27 RU; for RRENEK [6mer-1-628] it is 23 RU.

KKNTIK [6mer-1-616]: the Binding affinity (RU) stood at 31 RU. Consider RKTWFR [6mer-1-644], for which the Binding affinity (RU) worked out at 31 RU. On to KKYNGK [6mer-1-642], for which the Binding affinity (RU) is 24 RU. On to KKIDKR [6mer-1-619], for which the Binding affinity (RU) amounted to 23 RU. Molecule KKCTPR [6mer-1-1072] showed a Binding affinity (RU) of 36 RU. Molecule RRTWWR [6mer-1-627] came in with a Binding affinity (RU) of 29 RU. In turn, RKKEMK [6mer-1-658] came in with a Binding affinity (RU) of 20 RU.

Molecule KRDHIK [6mer-1-664] returned a Binding affinity (RU) of 26 RU. In turn, KKTCDK [6mer-1-1070] registered a Binding affinity (RU) of 24 RU.

Regarding KREDKK [6mer-1-625], the Binding affinity (RU) worked out at 33 RU.

KKPSVK [6mer-1-1075]: the Binding affinity (RU) came out at 38 RU. For KRICWK [6mer-1-651], the Binding affinity (RU) is 27 RU. In the case of KRMEPR [6mer-1-630], the Binding affinity (RU) stood at 14 RU. Under RRYSDR [6mer-1-631] stands 13 RU; under KKFKDR [6mer-1-663], 26 RU. Under KRYHIR [6mer-1-1068] stands 31 RU. Under KKACMR [6mer-1-608] stands 18 RU.

KRMTHR [6mer-1-653] came in with a Binding affinity (RU) of 15 RU. RRPTHK [6mer-1-656]: the Binding affinity (RU) is 28 RU.
